Results on one molecule are retold here after article PMC2173747 (The Journal of Cell Biology, 2003).

The EC50 is the concentration that produces a half-maximal response. A lower EC50 goes with a more potent agent.

The target in the experiment is purified human gelsolin (human, UniProt P06396 28-782). In words: ELISA.
Sequence of purified human gelsolin (P06396 28-782): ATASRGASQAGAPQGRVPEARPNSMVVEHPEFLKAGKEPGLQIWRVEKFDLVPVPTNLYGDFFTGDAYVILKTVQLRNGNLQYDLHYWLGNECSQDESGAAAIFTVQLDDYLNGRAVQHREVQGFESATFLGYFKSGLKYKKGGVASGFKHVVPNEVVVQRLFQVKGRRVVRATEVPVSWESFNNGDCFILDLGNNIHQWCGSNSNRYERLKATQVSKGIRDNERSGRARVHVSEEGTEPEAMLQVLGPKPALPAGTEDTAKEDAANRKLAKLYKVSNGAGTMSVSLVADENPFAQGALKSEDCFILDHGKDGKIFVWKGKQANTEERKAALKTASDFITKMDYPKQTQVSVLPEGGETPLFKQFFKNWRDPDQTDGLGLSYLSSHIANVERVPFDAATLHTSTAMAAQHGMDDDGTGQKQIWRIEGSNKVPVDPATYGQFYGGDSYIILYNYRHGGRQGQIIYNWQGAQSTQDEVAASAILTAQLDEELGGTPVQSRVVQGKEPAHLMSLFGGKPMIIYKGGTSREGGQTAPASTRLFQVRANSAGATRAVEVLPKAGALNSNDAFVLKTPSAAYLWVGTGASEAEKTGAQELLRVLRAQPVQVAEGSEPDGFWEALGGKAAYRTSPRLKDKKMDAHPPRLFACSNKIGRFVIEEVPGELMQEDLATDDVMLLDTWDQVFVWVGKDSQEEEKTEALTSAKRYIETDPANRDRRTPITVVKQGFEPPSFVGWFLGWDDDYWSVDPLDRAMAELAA

B1: GST-PYK2Δ1–781 (domain or fragment)
chain: EEDFIQPSSREEAQQLWEAEKVKMRQILDKQQKQMVEDYQWLRQEEKSLDPMVYMNDKSPLTPEKEVGYLEFTGPPQKPPRLGAQSIQPTANLDRTDDLVYLNVMELVRAVLELKNELCQLPPEGYVVVVKNVGLTLRKLIGSVDDLLPSLPSSSRTEIEGTQKLLNKDLAELINKMRLAQQNAVTSLSEECKRQMLTASHTLAVDAKNLLDAVDQAKVLANLAHPPAE
Molecule B1 displayed a half-maximal effective concentration (EC50) of 30 ± 4 nM.
